Experimental data: patent publication US20090286724A1, “AGGREGABLE GLP-1 ANALOGUE AND SUSTAINED-RELEASE PHARMACEUTICAL COMPOSITION” (CHUGAI SEIYAKU KABUSHIKI KAISHA, priority 2005, published 2009)
Ends that are not written are not given here.

Legend:
[1] = In vitro release test of GLP-1 from Zinc/GLP-1 complex; type: physicochemical; conditions: PBS pH 7.4, 37° C.
Method: The quantification of GLP-1 analogue was carried out using RP-HPLC.
400 μg of each of WT-GLP-1 and GLP-1 analogue (Peptide 1) was dissolved in a 1 mM HCl solution (200 μL, pH: 2.8) containing 2 mg/mL zinc chloride. 100 μL of each of the resulting solutions was added to E-tube and diluted with a 1 mM HCl solution, whereby a 1 mg/mL solution was prepared. Then, 20 μL of PB (pH: 8.9, 100 mM) was added thereto, whereby a complex of Zinc/GLP-1 was formed. After the resulting mixture was centrifuged at 15,000 rpm for 5 minutes, the supernatant was removed, whereby a Zinc/GLP-1 complex was obtained.
PBS (0.5 mL, pH: 7.4) was added to E-tube containing the Zinc/GLP-1 complex at 37° C. The E-tube was centrifuged at different time points, and the supernatant was sampled, and 0.5 mL of PBS was freshly added thereto. 20 μL of 0.2 M HCl was added to 200 μL of the sample, and quantification was carried out by RP-HPLC.

[2] = Precipitation of peptide as zinc salt, peptide in supernatant by RP-HPLC; type: physicochemical; conditions: Z/P=15, peptide 1 mg/mL, 100 mM HEPES pH 7.4, 25° C., 18 hours
Method: Further, zinc chloride was dissolved in Milli-Q water to give a final concentration of 1 mg/mL. 1 M HEPES buffer (pH 7.4) was separately prepared. To the aqueous solution of peptide, the HEPES buffer, Milli-Q water and the aqueous solution of zinc chloride were sequentially added, whereby a sample was prepared such that the final volume was 30 mL, the final concentration of peptide was 1 mg/mL, the final concentration of HEPES (pH 7.4) was 100 mM, and the ratio of zinc chloride to Peptide 1 became Z/P=1. The resulting solution was let stand at room temperature (25° C.) for 18 hours. […] The solution was subjected to a centrifugation procedure (10,000 g, 3 min) and decantation, whereby the white precipitate and supernatant were separated.
Further, zinc chloride was dissolved in Milli-Q water to give a final concentration of 1 mg/mL. 1 M HEPES buffer (pH 7.4) was separately prepared. […] The resulting solution was let stand at room temperature (25° C.) for 18 hours. […] The solution was subjected to a centrifugation procedure (10,000 g, 3 min) and decantation, whereby the white precipitate and supernatant were separated.

[3] = Evaluation for aggregability by stirring in PBS (absorbance at 350 nm, monomer by RP-HPLC); type: physicochemical; conditions: 1 mg/mL in PBS
Method: Each of the GLP-1 analogue and WT-GLP-1 in Example 1 was dissolved in PBS at a concentration of 1 mg/mL, and the amount of monomer was determined by RP-HPLC. 450 μL of each of the same solutions was placed into a glass vial along with a stirring bar, and the solution was stirred with a stirrer at room temperature for 20 hours. After stirring, the absorbance of the solution at 350 nm was determined (DU640, manufactured by Beckman). As for the supernatant after centrifugation, the monomer quantification by RP-HPLC and CD measurement (J-725, manufactured by Jasco Co.) were carried out.
System: NanoSpace SI-2 (manufactured by Shiseido Co., Ltd.)
Column: Capcell PAK C18, 1 mm×75 mm (manufactured by Shiseido Co., Ltd.)
Eluent A: water/acetonitrile/TFA=949/50/1
Eluent B: water/acetonitrile/TFA=50/949/1
Elution method: Gradient from 80/20 to 20/80 (Eluent A/Eluent B)
The aggregability of Peptide 3 was evaluated in the same manner as the method shown in Example 2.

[4] = peptide 100 μg/mL, 100 mM HEPES pH 7.4, 25° C., 18 hours
Method: Further, zinc chloride was dissolved in Milli-Q water to give a final concentration of 0.1 mg/mL. 1 M HEPES (N-[2-hydroxyethyl]piperazine-N′-[2-ethanesulfonic acid]) buffer (pH 7.4) was separately prepared. To each of the aqueous solutions of peptide, the HEPES buffer, Milli-Q water and the aqueous solution of zinc chloride were sequentially added, whereby samples were prepared such that the final volume was 1 mL, the final concentration of peptide was 100 μg/mL, the final concentration of HEPES (pH 7.4) was 100 mM, and the ratio of zinc chloride to the mole number of peptide became various ratios (Z/P=0 to 30). These samples were let stand at room temperature (25° C.) for 18 hours. Each mixture was centrifuged (10,000 g, 3 min), and the concentration of peptide in the supernatant was determined by RP-HPLC.

[5] = target: Human GLP-1 receptor (human, UniProt P43220); test: cell-based or functional assay

Molecule: CC[C@H](C)[C@H](NC(=O)[C@H](Cc1ccccc1)NC(=O)[C@H](CCC(=O)O)NC(=O)[C@H](CCCCN)NC(=O)[C@H](C)NC(=O)[C@H](C)NC(=O)[C@H](CCC(N)=O)NC(=O)CNC(=O)[C@H](CCC(=O)O)NC(=O)[C@H](CC(C)C)NC(=O)[C@H](Cc1ccc(O)cc1)NC(=O)[C@H](CO)NC(=O)[C@H](CO)NC(=O)[C@@H](NC(=O)[C@H](CC(=O)O)NC(=O)[C@H](CO)NC(=O)[C@@H](NC(=O)[C@H](Cc1ccccc1)NC(=O)[C@@H](NC(=O)CNC(=O)[C@H](CCC(=O)O)NC(=O)[C@H](C)NC(=O)[C@@H](N)Cc1c[nH]cn1)[C@@H](C)O)[C@@H](C)O)C(C)C)C(=O)N[C@@H](C)C(=O)N[C@@H](Cc1c[nH]c2ccccc12)C(=O)N[C@@H](CC(C)C)C(=O)N[C@H](C(=O)N[C@@H](CCCCN)C(=O)NCC(=O)N[C@@H](CCCNC(=N)N)C(=O)NCC(=O)O)C(C)C [WT, GLP-1(7-37)]
- release observed until day [1]: 14 days
- peptide precipitated as a zinc salt [2]: 95.7%

Molecule: Peptide 3: comparative GLP-1 analogue with an isoelectric point nearly equal to that of Peptide 1 (HGEGTFTSDVKSYLEGQAAKEFIAWLVKGRG)
- aggregability compared with WT-GLP-1 ([3]; stirred 20 hours): an increase in the aggregability compared with that of WT-GLP-1 was not observed
- UV 350 nm Absorbance ([3]; stirred at room temperature for 20 hours): 0.06
- RP-HPLC Amount of residual monomer (%) ([3]; stirred at room temperature for 20 hours, supernatant after centrifugation): 95%

Molecule: HGEGTFTSDVSSYLEGQAAKEFIRWLVKGRG [Peptide 1, [Gly^8]-[Arg^30]-GLP-1(7-37)]
- ratio of added zinc to peptide (Z/P) when the solubility was the lowest [4]: around 1

Molecule: HGEGTFTSDVSSYLEGQAAKEFIRWLVKGRG [[Gly^8]-[Arg^30]-GLP-1(7-37)]
- EC50 value for cAMP production [5]: 0.0902 nM
